# Measurements taken from publication PMC11053023 (Nature Communications, 2024).
# B1: SUMO-(GGGS)2-CDK5R1 298-307 WT (peptide)
# chain: KKRLLLGLDR
# notes: CDK5R1, human, C-terminal 10 residues; also called CDK5R1 10-mer; 10-aa CDK5R1 C-degron; source: E. coli BL21(DE3), purified (Ni-NTA; SEC for ITC); not shown: SUMO with (GGGS)2 linker, N-terminal, kept
# B2: SUMO-(GGGS)2-CDK5R1 285-307 WT (peptide)
# chain: VFSDLKNESGQEDKKRLLLGLDR
# notes: CDK5R1, human, C-terminal 23 residues; also called CDK5R1 23-mer; 23-aa CDK5R1 C-degron; source: E. coli BL21(DE3), purified (Ni-NTA; SEC for ITC); not shown: SUMO with (GGGS)2 linker, N-terminal, kept
# What was measured:
# [1] = target: T1, FEM1B-EB-EC ternary complex with FEM1B D356A/V391A/Q394A/F501A/H502A (human, UniProt Q9UK73 1-627; Q15370 1-118; Q15369 17-112, D356A | V391A | Q394A | F501A | H502A); experiment: ITC; SUMO fusion peptides (0.5-1 mM) titrated into 50 μM FEM1B-EB-EC in the cell, 25 °C, 20 mM Tris, 200 mM NaCl, pH 7.5, 1 mM EDTA; one-site binding model; conditions: both partners purified
# T1 construct: FEM1B, human, full length, quintuple mutant of the aromatic (psi) pocket; elongin B (EB, ELOB), human; elongin C (EC, ELOC), human; also called 5A mutant; FEM1BFL-EB-EC D356A/V391A/Q394A/F501A/H502A; source: E. coli BL21(DE3), purified in the same way as the WT protein; copies: + +
# [2] = target: T2, FEM1B-EB-EC ternary complex (human, UniProt Q9UK73 1-627; Q15370 1-118; Q15369 17-112); experiment: ITC; peptides (0.5-1 mM) titrated into 50 μM protein in the cell, 25 °C; 20 mM Tris, 200 mM NaCl, pH 7.5, 1 mM EDTA; one-site binding model; conditions: both partners purified
# T2 construct: FEM1B, human, full-length (FEM1B^FL); elongin B (EB, ELOB), human; elongin C (EC, ELOC), human; written as one protomer; also called FEM1B-elongin B-elongin C; FEM1B-ELOB-ELOC; source: E. coli BL21(DE3), co-expressed, purified (Ni-NTA, SEC); copies: + +
Binder,stoichiometry N [1],Kd [2],Kd [1]
B1,0.46,–,–
KKHSLDLLLRHLSP [CCDC89 C-degron variant with deletion of nine residues in the linker region],–,> 50 µM,–
"KAADHLHKFHENDNGAAAGDLWQ [CUX1 C-degron F-22A, SUMO fusion]",–,> 500 µM,–
B2,0.16,–,5.7 ± 0.8 µM
